Measurements published in doi:10.1101/2024.10.21.619419 (bioRxiv, 2024).

Target: the molecule itself
Experiment: SEC

B1: Bxb1 residues 2-500 (enzyme, Mycobacteriophage Bxb1, UniProt Q9B086 2-500, looked up)
chain: RALVVIRLSRVTDATTSPERQLESCQQLCAQRGWDVVGVAEDLDVSGAVDPFDRKRRPNLARWLAFEEQPFDVIVAYRVDRLTRSIRHLQQLVHWAEDHKKLVVSATEAHFDTTTPFAAVVIALMGTVAQMELEAIKERNRSAAHFNIRAGKYRGSLPPWGYLPTRVDGEWRLVPDPVQRERILEVYHRVVDNHEPLHLVAHDLNRRGVLSPKDYFAQLQGREPQGREWSATALKRSMISEAMLGYATLNGKTVRDDDGAPLVRAEPILTREQLEALRAELVKTSRAKPAVSTPSLLLRVLFCAVCGEPAYKFAGGGRKHPRYRCRSMGFPKHCGNGTVAMAEWDAFCEEQVLDLLGDAERLEKVWVAGSDSAVELAEVNAELVDLTSLIGSPAYRAGSPQREALDARIAALAARQEELEGLEARPSGWEWRETGQRFGDWWREQDTAAKNTWLRSMNVRLTFDVRGGLTRTIDFGDLQEYEQHLRLGSVVERLHTGMS
stoichiometry N: 2
